Results taken from PMC2329594, “A Minimal Fragment of MUC1 Mediates Growth of Cancer Cells” (PLoS ONE, 2008).

Biological target: the molecule itself
Test: gold nanoparticle aggregation (colour change); histidine-tagged peptides (100 uM in PBS) on NTA-Ni gold nanoparticles, alone or mixed; colour change after 15 minutes

Protein | binding result
GGFLGLSNIKFRPGSVVVQLTLAFRE (peptide, UniProt P15941 1084-1109, looked up, MUC1, human; also called N-1084-1109-C; source: synthetic peptide) [MUC1_(SAD (self-aggregation domain)) peptide] | binds
VQLTLAFREGTINVHDVETQFNQYKTEAASRYNLTISDVSVSDVPFPF (peptide, UniProt P15941 1101-1148, looked up, MUC1, human; also called shifted frame peptide; N-1101-1148-C; source: synthetic peptide) [MUC1_(ecd-EXT) peptide] | binds
